Experimental data published in PMC8166773.

Target: influenza HA proteins mixture of A/California/7/09 (H1N1), A/Victoria/210/09 (H3N2), and B/Brisbane/
Test: SPR
Details: natural protein

Question: For Pseudomonas taiwanensis lectin (PTL), which Kd is on record?
Answer: The Kd was 8.9 nM.

Question: What about the koff of the same substance?
Answer: Its koff is 9.1e-06 s⁻¹.
